Laboratory results as given in patent publication US20250289867A1.

Target: MERS spike on pseudotyped lentiviral particles (MERS coronavirus) (UniProt K9N5Q8)
Experiment: cell-based or functional assay

UniProt K9N5Q8, sequence (K9N5Q8 18-1353): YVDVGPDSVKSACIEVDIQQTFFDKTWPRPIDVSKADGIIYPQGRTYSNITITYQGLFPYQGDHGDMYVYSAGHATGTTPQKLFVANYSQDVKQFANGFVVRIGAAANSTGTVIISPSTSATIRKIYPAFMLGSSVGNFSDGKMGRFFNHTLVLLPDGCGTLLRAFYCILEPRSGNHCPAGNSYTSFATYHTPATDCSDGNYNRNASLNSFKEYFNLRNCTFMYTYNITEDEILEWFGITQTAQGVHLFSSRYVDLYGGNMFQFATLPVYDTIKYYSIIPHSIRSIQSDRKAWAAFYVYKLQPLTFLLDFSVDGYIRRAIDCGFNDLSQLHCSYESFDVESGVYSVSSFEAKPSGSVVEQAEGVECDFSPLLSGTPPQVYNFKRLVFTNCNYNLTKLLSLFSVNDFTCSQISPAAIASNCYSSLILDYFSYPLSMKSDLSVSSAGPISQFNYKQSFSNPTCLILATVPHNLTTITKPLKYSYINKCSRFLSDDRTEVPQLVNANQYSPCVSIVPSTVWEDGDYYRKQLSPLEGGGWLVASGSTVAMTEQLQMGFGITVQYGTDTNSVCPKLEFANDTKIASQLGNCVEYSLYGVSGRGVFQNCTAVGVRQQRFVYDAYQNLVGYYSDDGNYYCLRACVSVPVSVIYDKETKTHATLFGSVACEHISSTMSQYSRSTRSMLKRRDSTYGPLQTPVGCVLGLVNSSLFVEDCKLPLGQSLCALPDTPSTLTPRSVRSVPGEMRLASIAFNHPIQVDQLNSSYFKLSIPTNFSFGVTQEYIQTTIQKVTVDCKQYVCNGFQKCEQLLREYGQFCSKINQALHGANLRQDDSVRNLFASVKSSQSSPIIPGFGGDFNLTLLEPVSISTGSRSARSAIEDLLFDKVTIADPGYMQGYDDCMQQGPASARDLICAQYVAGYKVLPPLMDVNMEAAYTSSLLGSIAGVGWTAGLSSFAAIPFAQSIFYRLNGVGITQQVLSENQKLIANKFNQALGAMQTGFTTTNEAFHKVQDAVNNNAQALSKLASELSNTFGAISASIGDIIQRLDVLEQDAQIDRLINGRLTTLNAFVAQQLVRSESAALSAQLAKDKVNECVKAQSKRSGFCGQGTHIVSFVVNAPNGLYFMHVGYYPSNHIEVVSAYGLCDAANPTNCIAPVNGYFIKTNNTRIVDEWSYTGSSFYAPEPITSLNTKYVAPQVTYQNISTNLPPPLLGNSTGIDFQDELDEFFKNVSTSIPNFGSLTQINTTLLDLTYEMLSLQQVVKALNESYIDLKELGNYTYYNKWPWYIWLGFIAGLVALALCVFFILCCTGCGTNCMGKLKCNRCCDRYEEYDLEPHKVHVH

| Substance | IC50, pseudovirus microneutralization assay, H1650 target cells [nM] | IC50, pseudovirus neutralization assay, H1650 target cells [pM] |
| --- | --- | --- |
| DPP4 recombinant protein (from UniProt P27487 39-766) (receptor) | > 48 | – |
| NA75-DPP4, displayed on lentiviral-based multivalent particles (from UniProt P27487 30-766) (receptor) | – | 0.87 |
